{"source": "patent US20220289837A1", "about": "“Cystic Fibrosis Transmembrane Conductance Regulator Stabilizing Agents” (VIB VZW, priority 2019, published 2022)", "molecules": {"B1": {"name": "T2a: NBD1-specific CFTR-stabilizing nanobody, SEQ ID NO:3, binds epitope 1 (protein)", "VHH": "QVQLQESGGGLVQAGGSLRLSCAASGSIFRIDAMGWYRQAPGKQRELVAHSTSGGSTDYADSVKGRFTISRDNAKNTVYLQMNSLKPEDTAVYYCNADVRTRWYASNNYWGQGTQVTVSS", "modifications": "T2a Nanobody amino acid sequence"}, "B2": {"name": "T27: NBD1-specific CFTR-stabilizing nanobody, SEQ ID NO:4, binds epitope 1 (protein)", "VHH": "QVQLQESGGGLEQPGGSLRLSCATSGVIFGINAMGWYRQAPGKQRELVATFTSGGSTNYADFVEGRFTISRDNAKNTVYLQMNGLRPEDTAVYYCHATVVVSRYGLTYDYWGQGTQVTVSS", "modifications": "T27 Nanobody amino acid sequence"}, "B3": {"name": "T8: nanobody, SEQ ID NO:7, binds epitope 2 including F508, stabilizes WT CFTR but not F508del (protein)", "VHH": "QVQLQESGGGLVQPGGSLRLSCAASGSTSSINAMGWYRQAPGKQREPVAISSSGGDTRYAEPVKGRFTISRDNAQNKVYLQMNSLKPEDTAVYYCWLNWGRTSVNSWGQGTQVTVSS", "modifications": "T8 Nanobody amino acid sequence"}, "B4": {"name": "D12: NBD1-specific CFTR-stabilizing nanobody, SEQ ID NO:2, binds epitope 1 (protein)", "VHH": "QVQLQESGGGLVQAGSSLRLACAATGSIRSINNMGWYRQAPGKQRGMVAIITRVGNTDYADSVKGRFTISRDNAKNTVYLQMNSLKPEDTATYYCHAEITEQSRPFYLTDDYWGQGTQVTVSS", "modifications": "D12 Nanobody amino acid sequence"}, "B5": {"name": "G3a: non-stabilizing nanobody, SEQ ID NO:50, recognizes the structurally diverse region of NBD1 (protein)", "VHH": "QVQLQESGGGLVQAGGSLRLSCTASGRAFSWYVMGWFRQAPGKEREFVATVSGNGSRRDYADSVKGRFTISRDNAKNTVYLQMNSLKPEDTAVYYCAASSTYYYTDPEKYDYWGQGTQVTVSS", "modifications": "G3a Nanobody"}}, "data": [{"target": "T1, F508del-2PT-NBD1 (Homo sapiens, UniProt P13569, A534P/DEL508-508/I539T/S492P/V470M)", "T1 construct": "His6-SUMO (N, cleaved yes); made in house; host or cells: Escherichia coli BL21(DE3) pLysS", "T1 sequence (P13569 with tags, fused parts or gaps V470M/S492P/DEL508-508/A534P/I539T limits assumed)": "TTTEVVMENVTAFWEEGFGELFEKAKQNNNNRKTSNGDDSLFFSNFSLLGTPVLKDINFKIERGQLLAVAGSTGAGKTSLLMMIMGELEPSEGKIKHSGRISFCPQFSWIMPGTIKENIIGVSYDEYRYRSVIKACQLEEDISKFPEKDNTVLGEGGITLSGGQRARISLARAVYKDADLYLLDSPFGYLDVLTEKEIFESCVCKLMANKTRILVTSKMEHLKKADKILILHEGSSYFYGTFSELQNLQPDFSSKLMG", "assay": "NBD1 ELISA dose-response, nanobody binding to immobilized F508del-2PT-NBD1", "details": "F508del-2PT-NBD1 versus 2PT-NBD1", "procedure": "(§1) For dose-response assays, Nunc MaxiSorp 96-well plates (ThermoScientific), were coated with 5 μg/ml NeutrAvidin Biotin-Binding protein (ThermoScientific) overnight at 4° C. and blocked 2 h at room temperature (RT) with 2% milk in phosphate-buffered saline (PBS). Each new reagent addition was preceded by three washes with 200 μl of NBD1 buffer (20 mM HEPES pH 7.5, 150 mM NaCl, and 10% (w/v) glycerol, 10% (w/v) ethylene glycol, 2 mM ATP, 3 mM MgCl2). Then, biotinylated purified NBD1 proteins at 5 μg/ml were immobilized 30 min at RT followed by 1 h RT incubation with 100 μl various concentrations (0-20 μg/ml) of purified nanobodies. Signal detection was followed using His-tag specific antibody (Invitrogen, catalogue number: MA1-135, 1:3000 dilution) to detect the nanobodies and secondary antibody anti-mouse coupled to horse radish peroxidase (HRP) (Millipore, catalogue number: AP308P, 1:5000 dilution). 50 μl of 1-Step UltraTMB-ELISA (ThermoScientific) was used as a substrate for the peroxidase and intensity of the reaction was proportional to absorbance measured at 450 nm with SynergyMx (BioTek) after addition of 50 μl H2SO4 at 1M.\n(§2) Affinity constants (KD) and thermodynamic parameters from ITC experiments were determined using one-site binding model with MicroCal Origin 7.0 software (Origin Lab Corp.). Dose response ELISA curves of each Nb binding to either isolated NBD1 or purified FL-CFTR were fitted using the sigmoidal dose-response equation from GraphPad Prism 3. DSC data were analyzed with the MicroCal Origin 7.0 software (Origin Lab Corp.), from which the unfolding temperature (Tm) was obtained.", "values": [{"molecule": "B1", "effect of F508del mutation on binding": "not affected"}, {"molecule": "B2", "effect of F508del mutation on binding": "not affected"}, {"molecule": "B3", "effect of F508del mutation on binding": "drastically affected"}, {"molecule": "B4", "effect of F508del mutation on binding": "not affected"}]}, {"target": "T1, F508del-2PT-NBD1", "assay": "NBD1 ELISA dose-response, nanobody binding to immobilized F508del-2PT-NBD1", "details": "immobilized F508del-2PT-NBD1", "procedure": "as §1, §2", "values": [{"molecule": "B5", "EC50 of binding to F508del-2PT-NBD1": "weaker binding potency"}]}, {"target": "T2, 2PT-NBD1 (Homo sapiens, UniProt P13569, A534P/I539T/S492P/V470M)", "T2 construct": "2PT-NBD1 mutants (residues 387-646 containing the mutations S492P, A534P, I539T); His6-SUMO (N, cleaved yes); made in house; host or cells: Escherichia coli BL21(DE3) pLysS", "T2 sequence (P13569 388-646 V470M/S492P/A534P/I539T)": "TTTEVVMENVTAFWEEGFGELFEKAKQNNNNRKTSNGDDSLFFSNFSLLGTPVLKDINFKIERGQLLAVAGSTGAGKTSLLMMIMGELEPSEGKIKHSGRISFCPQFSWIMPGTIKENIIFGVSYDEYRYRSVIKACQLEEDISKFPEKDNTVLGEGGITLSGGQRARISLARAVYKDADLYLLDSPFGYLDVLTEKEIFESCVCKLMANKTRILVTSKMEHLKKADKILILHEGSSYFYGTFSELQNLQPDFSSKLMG", "assay": "Thermal shift assay (DSF) of 2PT-NBD1", "format": "binding", "details": "versus isolated 2PT-NBD1", "procedure": "(§3) Solutions of either 2PT-NBD1 or F508del-2PT-NBD1 (10 μM final concentration), nanobodies (30 μM final concentration) and 2.5× or 5× concentrated SYPRO Orange Protein Stain (Molecular Probes) diluted in 20 mM HEPES pH 7.5, 150 mM NaCl, 3 mM MgCl2, 2 mM ATP and 10% (w/v) glycerol, 10% (w/v) ethylene glycol, were added to the wells of a 96-well PCR plates type BR white (VWR) in a final volume of 25 μl. Plates were sealed with EasySeal sheets (Molecular dimensions) and spun 2 min at 900× g. SYPRO orange fluorescence was monitored in CFX96 Touch Real-Time PCR Detection System (Bio-Rad) using FRET scan mode from 10 to 80° C. in increments of either 1° C. or 0.2° C.", "values": [{"molecule": "B1", "increase of Tm of 2PT-NBD1": "11.2 °C"}, {"molecule": "B2", "increase of Tm of 2PT-NBD1": "11.9 °C"}, {"molecule": "B3", "increase of Tm of 2PT-NBD1": "9.3 °C"}, {"molecule": "B4", "increase of Tm of 2PT-NBD1": "13.8 °C"}, {"molecule": "B5", "increase of Tm of 2PT-NBD1": "did not induce a significant shift"}]}, {"target": "T1, F508del-2PT-NBD1", "assay": "Thermal shift assay (DSF) of F508del-2PT-NBD1", "format": "binding", "details": "not given", "procedure": "as §3", "values": [{"molecule": "B1", "stabilization of F508del-2PT-NBD1": "to the same extent as 2PT-NBD1"}, {"molecule": "B2", "stabilization of F508del-2PT-NBD1": "to the same extent as 2PT-NBD1"}, {"molecule": "B3", "stabilization of F508del-2PT-NBD1": "did not stabilize"}, {"molecule": "B4", "stabilization of F508del-2PT-NBD1": "to the same extent as 2PT-NBD1"}]}, {"target": "wt-CFTR (Homo sapiens, UniProt P13569)", "sequence (P13569 whole entry)": "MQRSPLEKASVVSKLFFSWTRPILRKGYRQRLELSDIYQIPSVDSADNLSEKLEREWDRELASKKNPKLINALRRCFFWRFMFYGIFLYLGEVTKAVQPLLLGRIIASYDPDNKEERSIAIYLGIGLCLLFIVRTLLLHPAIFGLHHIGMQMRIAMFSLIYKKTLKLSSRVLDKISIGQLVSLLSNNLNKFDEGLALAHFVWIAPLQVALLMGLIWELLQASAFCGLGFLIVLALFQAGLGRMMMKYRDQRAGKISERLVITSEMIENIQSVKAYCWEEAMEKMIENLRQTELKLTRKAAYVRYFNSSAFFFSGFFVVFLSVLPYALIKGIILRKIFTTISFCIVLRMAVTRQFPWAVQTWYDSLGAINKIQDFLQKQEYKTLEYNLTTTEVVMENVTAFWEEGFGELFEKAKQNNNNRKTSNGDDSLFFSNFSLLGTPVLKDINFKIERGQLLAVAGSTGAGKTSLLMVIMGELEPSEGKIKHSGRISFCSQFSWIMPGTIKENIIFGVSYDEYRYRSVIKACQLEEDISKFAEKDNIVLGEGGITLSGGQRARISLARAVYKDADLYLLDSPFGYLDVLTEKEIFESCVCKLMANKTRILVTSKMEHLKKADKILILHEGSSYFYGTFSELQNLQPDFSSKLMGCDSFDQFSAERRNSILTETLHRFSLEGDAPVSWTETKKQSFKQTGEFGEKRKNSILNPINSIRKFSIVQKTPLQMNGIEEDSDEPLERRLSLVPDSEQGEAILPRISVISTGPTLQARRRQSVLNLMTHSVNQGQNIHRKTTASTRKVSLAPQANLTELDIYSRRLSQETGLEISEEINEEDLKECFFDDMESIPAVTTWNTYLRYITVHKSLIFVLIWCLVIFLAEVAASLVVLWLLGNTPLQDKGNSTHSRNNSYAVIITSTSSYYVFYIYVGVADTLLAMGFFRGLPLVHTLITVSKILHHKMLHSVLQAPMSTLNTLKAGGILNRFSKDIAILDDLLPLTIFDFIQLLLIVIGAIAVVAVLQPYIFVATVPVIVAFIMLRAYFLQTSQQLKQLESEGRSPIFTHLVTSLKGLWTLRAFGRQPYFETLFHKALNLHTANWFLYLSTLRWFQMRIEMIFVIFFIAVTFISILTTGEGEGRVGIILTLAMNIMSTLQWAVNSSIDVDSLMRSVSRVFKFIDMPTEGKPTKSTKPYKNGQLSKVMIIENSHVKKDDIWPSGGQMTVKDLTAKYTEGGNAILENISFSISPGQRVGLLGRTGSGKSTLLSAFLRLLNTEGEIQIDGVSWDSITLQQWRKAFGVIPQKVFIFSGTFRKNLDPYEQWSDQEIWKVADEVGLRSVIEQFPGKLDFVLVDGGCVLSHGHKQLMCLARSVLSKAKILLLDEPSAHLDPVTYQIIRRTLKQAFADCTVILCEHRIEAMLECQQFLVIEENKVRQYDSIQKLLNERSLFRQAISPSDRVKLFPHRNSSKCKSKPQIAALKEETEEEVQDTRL", "assay": "ATPase activity of wt-CFTR", "format": "biochemical", "parameters": "His10-SUMO* (N); FLAG; EGFP (C); made in house; host or cells: HEK 293 cell line D165", "details": "saturating concentration of nanobody", "procedure": "To determine effect of nanobodies on functional stability, aliquots of purified wt-CFTR (25 nM) were preincubated 1 h on ice with 1 μM nanobody (or 15 μM, in the case of G3a). Substrate α-[32P]-ATP (2 μl) was then added for measurement of ATPase activity as previously described^[48]. Then, nanobody protection against thermal denaturation was determined after a 30 min thermal challenge of the protein complexes followed by an assay of residual ATPase.", "values": [{"molecule": "B1", "ATPase activity": "50 % of PKA-phosphorylated CFTR"}, {"molecule": "B2", "ATPase activity": "30 % of PKA-phosphorylated CFTR"}, {"molecule": "B3", "ATPase activity": "60 % of PKA-phosphorylated CFTR"}, {"molecule": "B4", "ATPase activity": "50 % of PKA-phosphorylated CFTR"}, {"molecule": "B5", "ATPase activity": "did not affect"}]}, {"target": "2PT-NBD1-RE", "sequence (P13569 387-678 S492P/A534P/I539T)": "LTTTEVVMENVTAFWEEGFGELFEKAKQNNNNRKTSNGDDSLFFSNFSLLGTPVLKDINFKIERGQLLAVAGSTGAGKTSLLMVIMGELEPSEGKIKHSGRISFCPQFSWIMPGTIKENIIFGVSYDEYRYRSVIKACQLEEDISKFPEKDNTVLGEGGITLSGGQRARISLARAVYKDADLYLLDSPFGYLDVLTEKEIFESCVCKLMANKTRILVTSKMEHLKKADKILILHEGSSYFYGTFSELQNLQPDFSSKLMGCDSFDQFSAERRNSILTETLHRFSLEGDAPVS", "assay": "NBD1 ELISA dose-response, binding to 2PT-NBD1-RE", "parameters": "species or system human", "details": "not given", "excerpt": "(§4) Human ΔRI-NBD1 (residues 387-646, A405-436; SEQ ID NO:59) construct was obtained from Arizona State University Plasmid Repository (clone id: 287374), 2PT-NBD1 mutants (residues 387-646 containing the mutations S492P, A534P, I539T; SEQ ID NO:58), 2PT-NBD1-RE (2PT-NBD1 with residues 387-678) were constructed using WT-NBD1 construct from ASU (clone id: 287401). Mutations were introduced by PCR using PfuUltra high-fidelity DNA polymerase from Agilent (catalogue number: 600382) and sequences were confirmed by automated DNA sequencing (UNC-CH Genome Analysis Facility). Proteins were expressed as N-terminal, His6-SUMO fusion proteins in Escherichia coli (BL21(DE3) pLysS cells, Millipore) as described in [5,11] with the following modifications. Cells were lysed using a French press and recombinant proteins were purified by nickel ion affinity chromatography (HisTrap HP, 1 ml—GE Healthcare). The His6-SUMO tag was removed using Ulp1 protease at 1/100 weight/weight ratio during 20 min on ice. […] Protein concentration was determined using Coomassie Plus (Bradford) Assay Kit (Thermo Scientific).\nas §1", "values": [{"molecule": "B1", "apparent EC50 on 2PT-NBD1-RE compared to 2PT-NBD1": "decrease in apparent EC50"}, {"molecule": "B2", "apparent EC50 on 2PT-NBD1-RE compared to 2PT-NBD1": "decrease in apparent EC50"}, {"molecule": "B4", "apparent EC50 on 2PT-NBD1-RE compared to 2PT-NBD1": "decrease in apparent EC50"}]}, {"system": "2PT-NBD1-RE", "assay": "NBD1 ELISA dose-response, binding to 2PT-NBD1-RE", "parameters": "species or system human", "details": "construct containing the regulatory extension", "excerpt": "as §4, §1", "values": [{"molecule": "B1", "binding to 2PT-NBD1-RE": "high-affinity binding"}, {"molecule": "B2", "binding to 2PT-NBD1-RE": "high-affinity binding"}, {"molecule": "B4", "binding to 2PT-NBD1-RE": "high-affinity binding"}]}, {"target": "T3, 2PT-F508del-CFTR (Homo sapiens, UniProt P13569, A534P/DEL508-508/I539T/S492P)", "T3 construct": "expressed in transfected cells", "T3 sequence (P13569 with tags, fused parts or gaps S492P/DEL508-508/A534P/I539T)": "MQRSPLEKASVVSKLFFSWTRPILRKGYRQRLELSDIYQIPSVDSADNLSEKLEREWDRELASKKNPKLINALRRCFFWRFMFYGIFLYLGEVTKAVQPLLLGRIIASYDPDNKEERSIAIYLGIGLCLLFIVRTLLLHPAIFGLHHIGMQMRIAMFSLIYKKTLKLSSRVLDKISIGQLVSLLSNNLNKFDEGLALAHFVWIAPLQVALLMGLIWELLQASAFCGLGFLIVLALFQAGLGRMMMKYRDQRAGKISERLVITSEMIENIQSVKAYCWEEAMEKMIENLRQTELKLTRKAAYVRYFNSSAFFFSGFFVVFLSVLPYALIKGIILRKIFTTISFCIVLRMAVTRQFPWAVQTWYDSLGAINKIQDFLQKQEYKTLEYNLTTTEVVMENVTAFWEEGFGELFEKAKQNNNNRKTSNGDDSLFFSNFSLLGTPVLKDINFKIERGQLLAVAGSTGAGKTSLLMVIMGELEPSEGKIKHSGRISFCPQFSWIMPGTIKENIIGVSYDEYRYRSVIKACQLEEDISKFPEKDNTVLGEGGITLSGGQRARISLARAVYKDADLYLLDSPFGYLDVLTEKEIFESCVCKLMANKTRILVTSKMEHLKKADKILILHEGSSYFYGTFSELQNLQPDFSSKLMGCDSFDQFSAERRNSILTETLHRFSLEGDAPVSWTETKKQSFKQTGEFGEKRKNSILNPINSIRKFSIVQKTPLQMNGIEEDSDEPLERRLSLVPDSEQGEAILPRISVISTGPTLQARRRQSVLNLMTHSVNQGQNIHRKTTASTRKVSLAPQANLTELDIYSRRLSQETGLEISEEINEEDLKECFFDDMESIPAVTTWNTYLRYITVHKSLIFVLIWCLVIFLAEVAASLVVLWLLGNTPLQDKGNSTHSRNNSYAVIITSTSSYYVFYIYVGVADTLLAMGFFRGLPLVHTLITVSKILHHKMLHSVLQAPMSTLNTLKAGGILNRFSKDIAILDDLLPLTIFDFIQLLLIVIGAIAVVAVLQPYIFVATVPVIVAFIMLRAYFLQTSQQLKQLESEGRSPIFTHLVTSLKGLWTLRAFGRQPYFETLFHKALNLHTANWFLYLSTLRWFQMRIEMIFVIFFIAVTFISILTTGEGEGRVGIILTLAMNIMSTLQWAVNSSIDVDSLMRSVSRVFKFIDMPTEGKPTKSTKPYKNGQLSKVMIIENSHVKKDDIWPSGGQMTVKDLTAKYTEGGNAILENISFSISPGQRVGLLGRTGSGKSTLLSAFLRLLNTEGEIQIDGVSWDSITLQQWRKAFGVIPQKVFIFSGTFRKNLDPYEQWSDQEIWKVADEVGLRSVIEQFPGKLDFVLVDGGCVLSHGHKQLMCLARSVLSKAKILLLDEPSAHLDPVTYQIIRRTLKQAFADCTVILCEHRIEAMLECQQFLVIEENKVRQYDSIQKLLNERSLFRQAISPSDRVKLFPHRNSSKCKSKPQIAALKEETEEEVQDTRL", "assay": "Flow cytometry on BHK-21 cells expressing 2PT-F508del-CFTR", "format": "cell-based", "details": "not given", "procedure": "Parental BHK-21 cells (ATCC; CCL-10) and cells stably overexpressing human wt-CFTR^[43,44,47] or 2PT-F508del-CFTR, as described above, were permeabilized with 0.01% n-Dodecyl-β-D-Maltopyranoside β-DDM—Inalco) at least for 2 h on ice. In the meantime, cells were incubated with 50 μg/ml nanobodies and DRAQ7 (0.3 μM—Biostatus) to monitor the permeabilization state. Nanobody binding was detected by using His-tag specific antibody (Invitrogen, catalogue number MA1-135, 1 μg/ml) or Myc-tag specific antibody (Invitrogen, catalogue number 13-2500, 2 μg/ml) and then anti-mouse-Alexa Fluor 488 (Invitrogen, catalogue number A11001, 1.3 μg/ml) at least for 30 min on ice. Cells were washed one time between each step by centrifugation (200×g for 5 min at 4° C.). All incubations (100 μl) and washes (1.5 ml) were performed in PBS with 6% fetal bovine serum (FBS) and 0.01%13-DDM on ice. Cells fluorescence was measured with Gallios Flow Cytometer (Beckman Coulter). Data were analyzed with Kaluza software.", "values": [{"molecule": "B1", "binding to 2PT-F508del expressing cells": "bind efficiently"}, {"molecule": "B3", "binding to 2PT-F508del expressing cells": "not able to bind"}, {"molecule": "B5", "binding to 2PT-F508del expressing cells": "bind efficiently"}]}]}
